Assay [1] has as its target surface vimentin on HeLa cells (human (endogenous in HeLa)) (UniProt P08670). The assay is described as follows: flow cytometry on cells; cells transfected with pCMV-SPORT6-vimentin or mock-transfected, 24 hours later incubated with wildtype CPMV at 5x10^5 virions per cell for 2 hours; percent CPMV-positive cells; data not shown. In general terms: Flow cytometry measures light scatter and fluorescence of single cells or particles in a stream.

Assay [2] deals with vimentin expressed from pCMV-SPORT6-vimentin in MFT-16 vim-/- cells (UniProt P08670). Described as above.
The target of assay [3] is purified recombinant vimentin protein (UniProt P08670). The assay is described as follows: ELISA; 1 ug vimentin immobilised overnight on Immulon 2 HB plates in 0.1 M KPO4 pH 7.0; varying molar concentrations of CPMV, 1 hour, room temperature; detected with anti-CPMV polyclonal antibody; avidity not ruled out.

In publication PMC2670497 one finds percent of cells CPMV-positive and EC50 data, which are given here for one substance.

One may read the EC50 as the concentration that produces a half-maximal response. In the case of “Cowpea mosaic virus (CPMV) particles, wild type (complex)”, the values for the percent of cells CPMV-positive in assay [1] and in assay [2] were 5.36% and 1.21%, respectively. The 50% effective concentration (EC50) in assay [3] is 3.72 nM.
